System: MS2 coat protein
Test: apparent KD of MS2 coat protein; designed switch direction (-1 OFF switch, 1 ON switch): 1; higher = weaker reporter binding
Procedure, shortened: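 Three titration conditions were used: no input, 200 uM small-molecule ligand, and an oligonucleotide input. In each, SNAP-549-labelled MS2 coat protein was raised from 0.7 or 1.5 nM, doubling, to 3 µM over designed RNA switches transcribed on Illumina chips by stalled E. coli RNA polymerase. Curve fits of normalised cluster fluorescence gave values whose per-design median over clusters is the apparent KD.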

[1] = input ligand: microRNA oligo, concentration not stated
[2] = Eterna round: R95, input ligand: FMN 200 uM
[3] = Eterna round: R95, input ligand: microRNA oligo, concentration not stated
[4] = Eterna round: R95, input ligand: none

| Sequence | apparent KD of MS2 coat protein (input ligand: FMN 200 uM) [nM] | apparent KD of MS2 coat protein [1] [nM] | apparent KD of MS2 coat protein (input ligand: none) [nM] | apparent KD of MS2 coat protein [2] [nM] | apparent KD of MS2 coat protein [3] [nM] | apparent KD of MS2 coat protein [4] [nM] |
| --- | --- | --- | --- | --- | --- | --- |
| GUAACAUGACGAGGAUAUGGAACAUGAGGAUCACCCAUGUAUGUUCCAUAACGCGAAUGACGAAUCCAGAAGGCGUCGUGAAUG [Mat - Same State NG 2 - JL mod - D29] (Eterna round: R96, puzzle: Same State NG 2) | 41.7 | 124 | 220 | – | – | – |
| GUAAUACAUGAGGAUCACCCAUGUCAAUGUAGUCGAGGAUAUGGGUAGCUAUGUGGCUUACUAGAAGGCGACGAGC [Same State 1 - Mod of Vinnie Teenbexe v.4] (puzzle: Same State 1) | – | – | – | 90.3 | 157 | 251 |
| GUACAGAUCACAGGAUAUCACGUCGAUUAGACGUGAGAAGGGUGAUCACACAUGAAUAUUAAUACAUGAGGAUCACCCAUGUAC [SSNG1/16-A2] (Eterna round: R96, puzzle: Same State NG 1) | 65.6 | 22.5 | 30.6 | – | – | – |
| GUAGCAUACCGAGGAUAUUCAUAACAUGAGGAUCACCCAUGUAUUAGGCCACAUUAGUGGCCUUGGGAGAAGGCGGAAUGCUAC [Xeonanis - 20 Mod45] (Eterna round: R96, puzzle: Same State NG 2) | 12.1 | 11.9 | 16.9 | – | – | – |
| GUAGCAUACCGAGGAUAUUCAUAACAUGAGGAUCACCCAUGUUAGGCCAGCAUUAGCUGGCCUUGGGAGAAGGCGGAAUGCUAC [Xeonanis - 20 Mod52] (Eterna round: R96, puzzle: Same State NG 2) | 17.5 | 14.5 | 22.2 | – | – | – |
| GUAGCAUACCGAGGAUAUUCAUAAUACAUGAGGAUCACCCAUGUUAAUAAUAGGCGAAAGCCUUGGGAGAAGGCGGAAUGCUAC [Xeonanis - 20 Mod69] (Eterna round: R96, puzzle: Same State NG 2) | 11.4 | 9.05 | 16.2 | – | – | – |
| GUCCAACAUGAGGAUCACCCAUGUCGGGCGUGCACAGGAUAUCGCGCCGGGAAAGCCCAGCGAGAAGGGUGAUCGA [Atveinla] (puzzle: Same State 1) | – | – | – | 197 | 57.8 | 50.9 |
| GUCGGACCGGAAGGAUAUAACGACUGGUGUUUUCACAUGAGGAUCACCCAUGUAUCUCUACCGUGUUAGAAGGUUCGGAGGAAU [Eternabot solution 49] (Eterna round: R96, puzzle: Same State NG 2) | 14.8 | 15.2 | 20.4 | – | – | – |
| GUGCUCGUGUGAGGAUAUGCUUCCGGGUCGGCUGCAGAAGGUACUAUUAUACAUGAGGAUCACCCAUGUCGCUUUUCUCCGGUG [salish99_SSNG1_r04_917] (Eterna round: R96, puzzle: Same State NG 1) | 48.2 | 29.2 | 38.4 | – | – | – |
| GUGGAGGAUUAAGGAUAUUGAAUACAUAUGUUUAACAUGAGGAUCACCCAUGUGGGUUGCGGUAUCGAGAAGGUAAAUUACUGG [salish99_SSNG2_r04_034] (Eterna round: R96, puzzle: Same State NG 2) | 146 | 63.2 | 117 | – | – | – |
| GUGGCACAUGAGGAUCACCCAUGUGGGUAGAACAUAGGAUAUCACCAACAAAAUACCCGGUGAGAAGGAUGAUGCC [Esanesdi] (puzzle: Same State 1) | – | – | – | 118 | 121 | 161 |
| GUGGUCAGACAUGAGGAUCACCCAUGUGGAAUAAAUAACACACAGGAUAUCGAAUAUAAAAUAUACGAGAAGGGUGGAUUGGUG (Eterna round: R96, puzzle: Same State NG 3) | – | 334 | – | – | – | – |
| GUGGUCAGACAUGAGGAUCACCCAUGUGGAAUAAAUAACACACAGGAUAUGUAAUAUAAAAUAUAACAGAAGGGUGGAUUGGUG (Eterna round: R96, puzzle: Same State NG 3) | – | 213 | – | – | – | – |
